This note sets out measurements from patent publication US10238736B2, “Adjuvant compositions” (priority 2008, dated 2019).

The experiment deals with OVA-specific CTL responses. The experiment in a line: Relative CTL/cytokine/tetramer responses of mice immunized with OVA. It is filed as in vivo, C57131/6 mice. As for the experimental part:
Female C57131/6 mice (n=10 per group) with a body weight of about 18-20 g were used in the study. They were immunized via intramuscular (IM) injection into the left tibialis anterior muscle with a total volume of 50 μl on study days 0, 14 and 21.
A dose of the composition comprised, in various combinations, one or more of the following components: • Buffer: NaH2PO4.2H20 (229.32 mg/L), NaCl (1168.00 mg/L) and Na2HPO4 (1144.00 mg/L), dissolved in WFI and sterile filtered with a 0.1 μm filter. • Ovalbumin (OVA—Antigen): 10 μg • CpG ODN: 10 μg • Cholesterol: 1 μg • Quil A: 1 μg • DDA: 0.5 μg • Carbopol: 0.0375% • R1005: 50 μg Vaccine Preparation
Buffer was placed in a 50 ml flask with stir bar and stirred at a constant speed throughout all following steps. The components were added in the following order: Antigen (OVA); CPG ODN; Quil A; cholesterol (drop wise); DDA (drop wise); Carbopol®; and Bay R1005®. The composition was stirred at room temperature (approximately 25° C.) for a minimum of 30 minutes while protected from light by covering with foil. The solution was forced through a 25G needle into a syringe to break any large floating particles to obtain a uniform (cloudy) suspension and transferred to sterile glass vials for storage.
The following samples were collected: • Plasma: 4 weeks after the prime vaccination (1 week after second booster vaccination) • Cytotoxic T lymphocyte (CTL) (6 weeks after the prime vaccination (3 weeks after second booster vaccination) • Cytokine secretion in supernatant (4 weeks after the prime vaccination • 24-hour supernatant (IL-2, IL-4, IL-10, TNF • 72-hour supernatant (IFN-g • Tetramer (4 weeks after the prime vaccination • Cytokine producing T cells (6 weeks after the prime vaccination
The results are provided as a relative score that for each adjuvant showing the effect of the adjuvant. The endpoints are a relative scale based on the sum of the individual Cytotoxic T—Lymphocyte responses.

B1: OVA: Ovalbumin antigen, 10 μg, without adjuvant (protein, UniProt P01012 2-386, looked up)
Ovalbumin: GSIGAASMEFCFDVFKELKVHHANENIFYCPIAIMSALAMVYLGAKDSTRTQINKVVRFDKLPGFGDSIEAQCGTSVNVHSSLRDILNQITKPNDVYSFSLASRLYAEERYPILPEYLQCVKELYRGGLEPINFQTAADQARELINSWVESQTNGIIRNVLQPSSVDSQTAMVLVNAIVFKGLWEKAFKDEDTQAMPFRVTEQESKPVQMMYQIGLFRVASMASEKMKILELPFASGTMSMLVLLPDEVSGLEQLESIINFEKLTEWTSSNVMEERKIKVYLPRMKMEEKYNLTSVLMAMGITDVFSSSANLSGISSAESLKISQAVHAAHAEINEAGREVVGSAEAGVDAASVSEEFRADHPFLFCIKHIATNAVLFFGRCVSP
With B1, for the setting “relative score, 4 weeks after the prime vaccination”, the “Relative CTL Responses: Tetramer” value is recorded as 1. Further, under “relative score, 6 weeks after the prime vaccination”, the “Relative CTL Responses: CTL” value stood at 1. For the setting “relative score, 24-hour supernatant”, the “Relative CTL Responses: IL-2” value amounted to 1. Moreover, the “Relative CTL Responses: IFN-g” value (relative score, 72-hour supernatant) was 1. In addition, the “Relative CTL Responses: Total” value (sum of the individual relative scores) worked out at 4.
